Earlier results in paper PMC5340040 (BMC Biochemistry, 2017).

Test system: actin
Conditions: ref [10]
From the text: Actin is a negatively charged structural protein and the most abundant protein in the eukaryotic cells. Actin, released from dead cells, is also present in the saliva. Actin has important roles in cytoskeleton formation, cell division, motility, adhesion, signaling and more. Actin exists in either monomer globular (G) or polymer filament (F) form, which are interconvertible into each other.

B1: eEF1A: eukaryotic elongation factor 1 alpha (protein, UniProt P02994 2-458, looked up)
Elongation factor 1-alpha: GKEKSHINVVVIGHVDSGKSTTTGHLIYKCGGIDKRTIEKFEKEAAELGKGSFKYAWVLDKLKAERERGITIDIALWKFETPKYQVTVIDAPGHRDFIKNMITGTSQADCAILIIAGGVGEFEAGISKDGQTREHALLAFTLGVRQLIVAVNKMDSVKWDESRFQEIVKETSNFIKKVGYNPKTVPFVPISGWNGDNMIEATTNAPWYKGWEKETKAGVVKGKTLLEAIDAIEQPSRPTDKPLRLPLQDVYKIGGIGTVPVGRVETGVIKPGMVVTFAPAGVTTEVKSVEMHHEQLEQGVPGDNVGFNVKNVSVKEIRRGNVCGDAKNDPPKGCASFNATVIVLNHPGQISAGYSPVLDCHTAHIACRFDELLEKNDRRSGKKLEDHPKFLKSGDAALVKFVPSKPMCVEAFSEYPPLGRFAVRDMRQTVAVGVIKSVDKTEKAAKVTKAAQKAAKK
polymerization and bundling of actin, eEF1A: polymerize G-actin to F actin and bundle F-actin into actin bundles
